# Results taken from PMC11982978, “Cancer hotspot mutations rewire ERK2 specificity by selective exclusion of docking interactions” (The Journal of Biological Chemistry, 2025).
# Read-outs that look alike come from different tables or passages of the source. Ends that are not written are not given here.
# T1: Active phosphorylated His6-tagged ERK2 D319N (rat (p-0033 says mouse)), P63086
# T1 chain: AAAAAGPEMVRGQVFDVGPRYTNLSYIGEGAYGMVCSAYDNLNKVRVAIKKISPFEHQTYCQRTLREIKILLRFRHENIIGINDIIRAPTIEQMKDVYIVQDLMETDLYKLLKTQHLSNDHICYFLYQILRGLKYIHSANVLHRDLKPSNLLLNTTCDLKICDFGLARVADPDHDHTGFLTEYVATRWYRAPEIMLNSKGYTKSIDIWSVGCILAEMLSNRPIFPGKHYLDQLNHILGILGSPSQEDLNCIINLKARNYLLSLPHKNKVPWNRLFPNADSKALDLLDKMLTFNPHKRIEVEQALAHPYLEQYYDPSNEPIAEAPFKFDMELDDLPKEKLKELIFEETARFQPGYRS
# T2: Active phosphorylated His6-tagged ERK2 E320K (rat (p-0033 says mouse)), P63086
# T2 chain: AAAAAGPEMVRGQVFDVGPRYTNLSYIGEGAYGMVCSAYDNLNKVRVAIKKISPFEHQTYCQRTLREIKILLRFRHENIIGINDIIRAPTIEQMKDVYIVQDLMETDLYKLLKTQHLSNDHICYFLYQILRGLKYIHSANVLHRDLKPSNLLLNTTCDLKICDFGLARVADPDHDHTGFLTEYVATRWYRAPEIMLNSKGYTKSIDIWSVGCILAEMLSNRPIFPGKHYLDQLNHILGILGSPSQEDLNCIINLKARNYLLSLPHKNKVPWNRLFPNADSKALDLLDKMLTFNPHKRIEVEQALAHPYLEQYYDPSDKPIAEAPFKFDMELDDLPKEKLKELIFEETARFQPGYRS
# T3: Active phosphorylated His6-tagged ERK2 R133K (rat (p-0033 says mouse)), P63086
# T3 chain: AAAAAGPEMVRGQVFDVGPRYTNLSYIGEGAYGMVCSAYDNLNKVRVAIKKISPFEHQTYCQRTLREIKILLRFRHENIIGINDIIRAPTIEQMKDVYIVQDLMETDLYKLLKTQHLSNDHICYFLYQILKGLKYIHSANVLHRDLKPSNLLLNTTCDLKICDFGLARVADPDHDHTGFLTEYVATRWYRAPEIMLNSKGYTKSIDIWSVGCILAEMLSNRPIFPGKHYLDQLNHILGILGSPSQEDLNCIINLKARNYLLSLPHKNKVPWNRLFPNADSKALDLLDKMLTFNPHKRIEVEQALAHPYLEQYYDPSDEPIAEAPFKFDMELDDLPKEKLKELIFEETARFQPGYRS
# Key:
# [1] = target: T1, Active phosphorylated His6-tagged ERK2 …; conditions: modification not given; phosphorylated (active form; sites not given)
# [2] = target: T2, Active phosphorylated His6-tagged ERK2 …; conditions: modification not given; phosphorylated (active form; sites not given)
# [3] = target: T3, Active phosphorylated His6-tagged ERK2 …; conditions: modification not given; phosphorylated (active form; sites not given)
# [4] = target: T4, Active phosphorylated His6-tagged ERK2 WT (rat (p-0033 says mouse)), P63086; conditions: modification not given; phosphorylated (active form; sites not given)
# [5] = target: T1, Active phosphorylated His6-tagged ERK2 …; conditions: modification not given; phosphorylated (active form; sites not given)
# [6] = target: T2, Active phosphorylated His6-tagged ERK2 …; conditions: modification not given; phosphorylated (active form; sites not given)
# [7] = target: T3, Active phosphorylated His6-tagged ERK2 …; conditions: modification not given; phosphorylated (active form; sites not given)
# [8] = target: T4, Active phosphorylated His6-tagged ERK2 …; conditions: modification not given; phosphorylated (active form; sites not given); remark: listed apart in the source
# [9] = target: T1, Active phosphorylated His6-tagged ERK2 …; assay: competitive peptide kinase assay; D-peptide titrated as competitive inhibitor of 10 nM ERK2 on 5 μM D-site dependent reporter peptide (AQT0376), 10 μM ATP; 54 mM HEPES pH 7.4, 1.2 mM DTT, 0.01% Brij-35, 1% glycerol, 0.2 mg/ml BSA, 10 mM MgCl2; fluorescence read-out; IC50 as relative binding affinity
# [10] = target: T2, Active phosphorylated His6-tagged ERK2 …; assay: as above
# [11] = target: T3, Active phosphorylated His6-tagged ERK2 …; assay: as above
# [12] = target: T4, Active phosphorylated His6-tagged ERK2 …; assay: as above
# [13] = target: T1, Active phosphorylated His6-tagged ERK2 …; conditions: modification not given; phosphorylated (active form; sites not given)
# [14] = target: T2, Active phosphorylated His6-tagged ERK2 …; conditions: modification not given; phosphorylated (active form; sites not given)
# [15] = target: T3, Active phosphorylated His6-tagged ERK2 …; conditions: modification not given; phosphorylated (active form; sites not given)
# [16] = target: T4, Active phosphorylated His6-tagged ERK2 …; conditions: modification not given; phosphorylated (active form; sites not given); remark: listed apart in the source
binder,measurement,setting,value
"GLQERRGSNVSLTL (not fully specified (some residues, N-terminus)) [PTPN5]",IC50,[1],600 µM
same,IC50,[2],600 µM
same,IC50,[3],760 µM
same,IC50,[4],42 µM
"PQKGRKPRDLELPL (not fully specified (some residues, N-terminus)) [ELK1]",IC50,[5],32 µM
same,IC50,[6],43 µM
same,IC50,[7],58 µM
same,IC50,[8],35 µM
IRARRGGLPRLAVSD (modifications not checked) [ISG20 D-peptide G7+],IC50,[9],150 µM
same,IC50,[10],210 µM
same,IC50,[11],170 µM
same,IC50,[12],75 µM
"ARRKPVLPALTINP (not fully specified (some residues, N-terminus)) [MAP2K2]",IC50,[13],23 µM
same,IC50,[14],41 µM
same,IC50,[15],29 µM
same,IC50,[16],23 µM
IGRARRGLPRLAVSD (modifications not checked) [ISG20 D-peptide G2+],IC50,[9],150 µM
same,IC50,[10],170 µM
same,IC50,[11],150 µM
same,IC50,[12],120 µM
